Results as given in publication PMC5663926, “In vivo near-infrared imaging of ErbB2 expressing breast tumors with dual-axes confocal endomicroscopy using a targeted peptide” (Scientific Reports, 2017).
Read-outs that look alike come from different tables or passages of the source. Residues, ends and D or L forms follow the SMILES beside them. *: point of attachment. X1 = CC1(C)C(/C=C/C2=C(Oc3ccc(S(=O)(=O)O)cc3)C(=C/C=C3/N(CCCCS(=O)(=O)[O-])c4ccc(S(=O)(=O)O)cc4C3(C)C)/CCC2)=[N+](CCCCCC(=O)NCCN2C(=O)CC(*)C2=O)c2ccc(S(=O)(=O)O)cc21

Tests used:
[1] = Sprague-Dawley rats; cited from earlier work
From the text: We validated specific binding of this peptide labeled with IRDye800CW to ErbB2 using siRNA knockdown and competition with cells in vitro and with immunohistochemistry and immunofluorescence studies on tissue specimens using known monoclonal anti-ErbB2 antibodies. Also, we have previously used peptides labeled with fluorescein isothiocyanate (FITC) in human clinical studies in hollow organs[25],[26]. We used IRDye800CW to image breast can ...

[2] = tested on: BT474 and MDA-MB-231 human xenograft breast tumors in nude mice; assay: In vivo photoacoustic imaging of peptide uptake in xenograft breast tumors; design: species or system nude mouse
Procedure: (§1) BT474 cells were diluted in growth factor reduced (GFR) Matrigel Matrix (Corning), and injected into one flank of female nude athymic mice (002019 Foxn1 , Jackson Laboratory) at 4–6 weeks of age with weight between 20–25 grams. A 0.18 mg 17-β-Estradiol pellet (#SE-121, Innovative Research of America) with 60 day release form was placed subcutaneously around the neck 1 day prior to tumor implantation to stimulate tumor growth. ∼1 × 10^7 cells were implanted for each tumor, and 2–3 implantations were performed in each mouse. MDA-MB-231 tumors were generated similarly except without Matrigel Matrix injection and only one implantation was performed in each mouse. Tumor size was monitored by ultrasound and MRI weekly. For all in vivo animal experiments, anesthesia was induced and maintained with inhaled isoflurane mixed with oxygen at a concentration of 2–4% at a flow rate of ~0.5 L/min via a nose cone.
(§2) We used photoacoustic tomography (Nexus128, Endra Inc) to measure peptide uptake by the human xenograft breast tumors. This system provides laser excitation with 7 ns pulses, 25 mJ/pulse, […] repetition rate, and tunable wavelength from 680 nm to 950 nm. The acoustic signal was collected with 128 unfocused (3 mm diameter) ultrasound transducers with 5 MHz center frequency assembled in a hemispherical bowl in a helical pattern. Water was added to the bowl to transmit the acoustic signal. We collected photoacoustic images with 120 views at 60 pulses/view. Each image covered a volume of 25 × 25 × 25 mm^3 with a voxel size of 280 μm^3, and each dataset required ~6–7 min for acquisition.
(§3) For imaging, the animals were placed inside a tray with the tumor positioned inside a water-filled dimple that couples the ultrasound signal. KSP*-IR800 was injected via tail vein at a concentration of 300 μM in a volume of 250 μL. Photoacoustic images were acquired at 0, 1, 2, 3, 6, 12, and 24 hours post-injection using λex = 780 nm excitation. PPS*-IR800 was administered in the same animal 48 hours later for control after the target peptide cleared as defined by T/B ratio returning to ∼1. IRDye800 (fluorophore without peptide) at the same concentration was also administered for control.
(§4) After completion of imaging, 3D images were reconstructed using data acquired from all 128 transducers at each view using a back-projection algorithm to correct for variations in laser intensity from pulse-to-pulse and small changes in temperature that affect the velocity of acoustic waves in water. The reconstructed raw data was analyzed using Osirix 6.5.2 software (Pixmeo) to generate a maximum intensity projection (MIP) image. To calculate the T/B ratio, the mean photoacoustic signal was measured from the tumor (target) using a circular ROI function on 2D MIP images. For background, we used the same ROI as that for the tumor prior to injection of peptide. The adjacent annulus with same area was used measure the background.

[3] = tested on: tumor and internal organs of tumor-bearing mouse; assay: Peptide biodistribution ex vivo; assay type: in vivo; details: n = 5 mice
From the text: (§5) High peptide uptake seen from the kidneys is consistent with renal clearance.
Figure 5 Peptide biodistribution. […] Strong signal from kidneys support renal clearance. (C) Quantified fluorescence intensities are shown for tumor and other organs from n = 5 mice. We fit a two-way ANOVA model to log-transformed data with terms for 11 tissues and 5 mice and tested each tissue mean against the mean for tumors. Kidney had 1.7 times more intense signals on average (P = 0.03), while all other tissues had at least 2-fold lower signals than tumor on average (P = 0.008 for lung was the largest P-value).

[4] = In vivo photoacoustic imaging of peptide uptake in xenograft breast tumors; design: species or system human xenograft, nude mouse; details: female, nude athymic (002019 Foxn1 <nu>), mouse, in vivo, iv, 75 nmol per mouse, BT474 and MDA-MB-231 tumors, tail vein, 300 μM in 250 μL
Procedure: as §1, §2, §3, §4

[5] = Histology (H&E) for acute toxicity; assay type: in vivo, mouse; details: mice euthanized after imaging; KSP*-IR800 by tail vein
From the text: as §5

Structure (SMILES)	intravenous dose up to which safety was published [1]	time of peak signal ([2]; IRDye800 without peptide, same concentration, post-injection) [h]	photoacoustic tumor signal of fluorophore alone ([2]; IRDye800 without peptide, same concentration, qualitative)	kidney signal relative to tumor (times more intense) ([3]; 1 hour after injection, two-way ANOVA, P = 0.03) [times]	signal in all other tissues than kidney, fold lower than tumor ([3]; liver, heart, stomach, brain, lung, spleen, small intestine, cecum, colon, 1 hour after injection, largest P = 0.008 (lung))	fluorescence intensity from tumor compared with other organs ([3]; qualitative)	time of rapid tumor uptake ([2]; photoacoustic tomography, systemic administration, nude mice (Discussion)) [h]	T/B ratio at ∼24 hours (clearance) ([2]; ∼24 hours post-injection, tail vein, 300 μM in 250 μL)	time after injection ([4]; read-out: time to return to baseline levels (T/B ratio))	time after injection ([4]; λex = 780 nm, read-out: time of peak peptide uptake (T/B ratio))	acute toxicity on histology (H&E) [5]
CC1(C)C(/C=C/C2=C(Oc3ccc(S(=O)(=O)O)cc3)C(=C/C=C3/N(CCCCS(=O)(=O)O)c4ccc(S(=O)(=O)[O-])cc4C3(C)C)/CCC2)=[N+](CCCCCC(=O)O)c2ccc(S(=O)(=O)O)cc21 [IRDye800, reference compound]	up to 20 mg/kg	2	significantly lower signal	–	–	–	–	–	–	–	–
CC1(C)C(/C=C/C2=C(Oc3ccc(S(=O)(=O)O)cc3)C(=C/C=C3/N(CCCCS(=O)(=O)[O-])c4ccc(S(=O)(=O)O)cc4C3(C)C)/CCC2)=[N+](CCCCCC(=O)NCCN2C(=O)CC(SC[C@H](NC(=O)[C@H](CO)NC(=O)CNC(=O)CNC(=O)CNC(=O)[C@H](Cc3ccccc3)NC(=O)[C@H](CCCNC(=N)N)NC(=O)[C@@H]3CCCN3C(=O)[C@H](CC(N)=O)NC(=O)[C@@H]3CCCN3C(=O)[C@H](CO)NC(=O)[C@@H](N)CCCCN)C(N)=O)C2=O)c2ccc(S(=O)(=O)O)cc21 (some centres unmarked) [KSP*-IR800] (H-KSPNPRFGGGSC(X1)-NH2)	–	–	–	1.7	at least 2 fold	significantly greater fluorescence intensity from the tumor	~1	~1	~24	1	no acute toxicity
